Source: the supplement of paper PMC9170038

Test system: MS2 coat protein
Experiment: apparent KD of MS2 coat protein; designed switch direction (-1 OFF switch, 1 ON switch): 1; higher = weaker reporter binding
In short: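 Normalised cluster fluorescence was curve-fitted, and each design's median over clusters is its apparent KD. Before this, SNAP-549-labelled MS2 coat protein was titrated from 0.7 or 1.5 nM, doubling to 3 µM, over RNA switches transcribed on Illumina chips by stalled E. coli RNA polymerase. Titrations had no input, 200 uM small-molecule ligand, or an oligonucleotide input, and steps lasted 0.8–1.5 h (lowest) to 10–20 min (highest).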

[1] = Eterna round: R95, input ligand: FMN 200 uM
[2] = Eterna round: R95, input ligand: microRNA oligo, concentration not stated
[3] = Eterna round: R95, input ligand: none
[4] = input ligand: microRNA oligo, concentration not stated

GGUCCGGCCUGAGCUGGACCGAAGCAUGUACAUGAGGAUCACCCAUGUUCAUGUGCAGGCUUUUUGCUCGUCUUGUG [JL-shm-2.05 JL mod] (puzzle: Sensor for hsa-mir-208a)
apparent KD of MS2 coat protein [1]: 91.7 nM
apparent KD of MS2 coat protein [2]: 12.7 nM
apparent KD of MS2 coat protein [3]: 106 nM

GGGAGACAUGAGGAUCACCCAUGUGGGAGGGAACGAGGAUAUGUAAGGAGAGAGAAUAGAACAGAAGGCGUAGGUG [JR_SS1_Sub022] (puzzle: Same State 1)
apparent KD of MS2 coat protein [1]: 50 nM
apparent KD of MS2 coat protein [2]: 50 nM
apparent KD of MS2 coat protein [3]: 61.9 nM

GGAGGACAUGAGGAUCACCCAUGUGGAUGGGCGCUAGGAUAUGCGUGCGGGAAGAGUGGAGCAGAAGGAGUGGGUU [JR_SS1_Sub045] (Eterna round: R96, puzzle: Same State 1)
apparent KD of MS2 coat protein (input ligand: FMN 200 uM): 66.8 nM
apparent KD of MS2 coat protein [4]: 41.9 nM
apparent KD of MS2 coat protein (input ligand: none): 55.6 nM

CGAUGAUACUCAGGAAGGAGAGUAGAGGAACAUGAGGAUCACCCAUGUAUGAGCUUUUUGCUCGUCAUGAACAGGAG [JR_SHM208a_Sub009] (puzzle: Sensor for hsa-mir-208a)
apparent KD of MS2 coat protein [1]: 107 nM
apparent KD of MS2 coat protein [2]: 64.4 nM
apparent KD of MS2 coat protein [3]: 111 nM

ACAUGAGACUUAGGAUAUGUUGUACCUACAUGUGACAUGAGGAUCACCCAUGUGGUAAGUAUGAUACAGAAGGAAGAGAUAUGU [Equivalance 66 - Jieux - Same State NG 2] (Eterna round: R96, puzzle: Same State NG 2)
apparent KD of MS2 coat protein (input ligand: FMN 200 uM): 17.2 nM
apparent KD of MS2 coat protein [4]: 27.5 nM
apparent KD of MS2 coat protein (input ligand: none): 42.9 nM

GCCAUCGCAUGAGGAUAUGGCACCGUUUCGGUGCCAGAAGGCAUGUCAAUUGACAUGAGGAUCACCCAUGUAUUAUUGAUGGCA [JL Fiskers NG1ss - 33 mod 7] (Eterna round: R96, puzzle: Same State NG 1)
apparent KD of MS2 coat protein (input ligand: FMN 200 uM): 55.6 nM
apparent KD of MS2 coat protein [4]: 448 nM
apparent KD of MS2 coat protein (input ligand: none): 860 nM

GCGAAAGCGGUAGGAUAUCUAGGAUAUGGGAAGGACUAAGUCUGGAGGUCACCUCACCCAGAAGGAGAGAAGGACACCGAAAGG [pwkr ssNG2 2FMN + F9.1] (Eterna round: R96, puzzle: Same State NG 2)
apparent KD of MS2 coat protein (input ligand: FMN 200 uM): 534 nM
apparent KD of MS2 coat protein [4]: 204 nM
apparent KD of MS2 coat protein (input ligand: none): 42.6 nM

GUGGAGGGUUGAGGAUAUUGAAUACAUAUGUUUAACAUGAGGAUCACCCAUGUGGGUUGCGGUUUCGAGAAGGUAGGUUGCUGG [salish99_SSNG2_r04_040] (Eterna round: R96, puzzle: Same State NG 2)
apparent KD of MS2 coat protein (input ligand: FMN 200 uM): 103 nM
apparent KD of MS2 coat protein [4]: 72 nM
apparent KD of MS2 coat protein (input ligand: none): 111 nM

GACCGCGAGGAAGGAUAUGGAGCCUUAAAGGCUCCAGAAGGUCCAUAAAGGACAUGAGGAUCACCCAUGUGGUGAGAAGCGGUC [Mat - Same State NG 1 - JL mod - D75] (Eterna round: R96, puzzle: Same State NG 1)
apparent KD of MS2 coat protein [4]: 711 nM

GACCGCGAGGAAGGAUAUGGAGCCUUAUUGGCUCCAGAAGGUCCAUAAGGGACAUGAGGAUCACCCAUGUGGGUUGAAGCGGUC [Fiskers NG1ss - 35] (Eterna round: R96, puzzle: Same State NG 1)
apparent KD of MS2 coat protein (input ligand: FMN 200 uM): 24.6 nM
apparent KD of MS2 coat protein [4]: 140 nM
apparent KD of MS2 coat protein (input ligand: none): 160 nM

UUAUUAUUUACAUGAGGAUCACCCAUGUUUUUAUGUCUUAGACAGGAUAUAGUAGUCUCGUUUUACUAGAAGGGUCUUUUUAUU [JR_SSNG3_Sub018] (Eterna round: R96, puzzle: Same State NG 3)
apparent KD of MS2 coat protein (input ligand: FMN 200 uM): 21.3 nM
apparent KD of MS2 coat protein [4]: 31.9 nM
apparent KD of MS2 coat protein (input ligand: none): 39.4 nM
